# Results from patent US20230364193A1, “COMBINED DRUG FOR TREATING CORONARIVUS DISEASE 2019” (SICHUAN UNIVERSITY WEST CHINA HOSPITAL, priority 2020, published 2023).
# Where two headings read alike, the source gives them in different places.
# B1: rSIFN-co: new type of genetically engineered interferon produced by changing 65 bases of the genetic code of IFN-α; amino acid sequence SEQ ID NO.2 (protein)
# chain: MCDLPQTHSLGNRRALILLAQMRRISPFSCLKDRHDFGFPQEEFDGNQFQKAQAISVLEMIQQTFNLFSTKDSSAAWDESLLEKFYTELYQQLNDLEACVIQEVGVEETPLMNVDSILAVKKYFQRITLYLTEKKYSPCAWEVVRAEIMRSFSLSTNLQERLRRKE
# modifications: rSIFN-co Synthetic amino acid sequence
# Experiments:
# [1] = tested on: SARS-CoV-2 virus; assay: microbe, parasite or virus in culture; details: Vero-E6
# [2] = tested on: patients with moderate or severe COVID-19; details: for clinical improvement rate day 28, (%): called clinical remission rate in b66; for Time for clinical improvement (days), median: called clinical remission; for Time for radiographic improvement (days), median: chest CT, absorption of inflammation; for Time for Viral nucleic acid to turn negative (days), median: real-time fluorescence quantitative PCR; for serious adverse reaction (cases): safety analysis set, the IFN-α case was respiratory failure
# [3] = tested on: Vero-E6 cells; assay: Cytotoxicity assay on Vero-E6 cells (CCK-8, 48 hours)
# Protocol: • 1) Vero-E6 cells were inoculated in a 96-well plate at 1×10^4 cells per well the day before; • 2) The cell state was observed until the confluence reached about 50%. The rSIFN-co was diluted by 2.17-fold with 2×DMEM medium containing 4% […], as the highest concentration, namely 6×10^8 pg/ml.
# The plates were cultured in an incubator at 37° C. and 5% CO2; • 4) 48 hours after adding the drug, 1/10 volume of Cell Counting […] (CCK-8) was directly added to the cell culture medium, mixed well, and air bubbles should be avoided. Cells were incubated in an incubator at 37° C. for 1 hour until the color turned into orange. The blank group was set as zero, and the absorbance at 450 nm was measured with a multifunctional microplate reader, and the survival rate was calculated as follows: survival rate (%)=OD450 of the test group/OD450 of the control group×100%.
# [4] = tested on: SARS-CoV-2 virus; details: for EC50 Experiment 1 / EC50 Experiment 2 / EC50 Experiment 3 / EC50 means: Vero-E6; for EC50 means: mean of 3 experiments
# [5] = day 7, percent of group, added to baseline treatment
# [6] = day 14, percent of group, added to baseline treatment
# [7] = day 28, percent of group, added to baseline treatment
molecule,measurement,setting,value
CCN(CC)CCCC(C)Nc1ccnc2cc(Cl)ccc12 (stereo not shown) [Chloroquine],EC50,"[1]; Severe acute respiratory syndrome coronavirus 2, Vero C1008, read-out: EC50 Experiment 1, MOI: 0.005 (50 PFU)",1.7 µM
same,EC50,"[1]; Severe acute respiratory syndrome coronavirus 2, Vero C1008, read-out: EC50 Experiment 1, MOI: 0.05 (500 PFU)",3.65 µM
same,EC50,"[1]; Severe acute respiratory syndrome coronavirus 2, Vero C1008, read-out: EC50 Experiment 1, MOI: 0.5 (5000 PFU)",5.25 µM
same,EC50,"[1]; Severe acute respiratory syndrome coronavirus 2, Vero C1008, read-out: EC50 Experiment 2, MOI: 0.005 (50 PFU)",1.77 µM
same,EC50,"[1]; Severe acute respiratory syndrome coronavirus 2, Vero C1008, read-out: EC50 Experiment 2, MOI: 0.05 (500 PFU)",4.23 µM
same,EC50,"[1]; Severe acute respiratory syndrome coronavirus 2, Vero C1008, read-out: EC50 Experiment 2, MOI: 0.5 (5000 PFU)",5.72 µM
same,EC50,"[1]; Severe acute respiratory syndrome coronavirus 2, Vero C1008, read-out: EC50 Experiment 3, MOI: 0.005 (50 PFU)",2.34 µM
same,EC50,"[1]; Severe acute respiratory syndrome coronavirus 2, Vero C1008, read-out: EC50 Experiment 3, MOI: 0.05 (500 PFU)",2.34 µM
same,EC50,"[1]; Severe acute respiratory syndrome coronavirus 2, Vero C1008, read-out: EC50 Experiment 3, MOI: 0.5 (5000 PFU)",5.04 µM
same,EC50,"[1]; Severe acute respiratory syndrome coronavirus 2, Vero C1008, read-out: EC50 means, MOI: 0.005 (50 PFU), mean of 3 experiments",1.94 µM
same,EC50,"[1]; Severe acute respiratory syndrome coronavirus 2, Vero C1008, read-out: EC50 means, MOI: 0.05 (500 PFU), mean of 3 experiments",3.41 µM
same,EC50,"[1]; Severe acute respiratory syndrome coronavirus 2, Vero C1008, read-out: EC50 means, MOI: 0.5 (5000 PFU), mean of 3 experiments",5.34 µM
IFN-α,"Radiographic Improvement Rate Day 7, (%)",[2]; Day 7,(25.0) %
same,"Rate for Viral nucleic acid to turn negative Day 7, (%)",[2]; Day 7,(31.3) %
same,"Radiographic Improvement Rate Day 14, (%)",[2]; Day 14,(66.7) %
same,"Rate for Viral nucleic acid to turn negative Day 14, (%)",[2]; Day 14,(64.6) %
same,"Radiographic Improvement Rate Day 28, (%)",[2]; Day 28,(79.2) %
same,"Rate for Viral nucleic acid to turn negative Day 28, (%)",[2]; Day 28,(85.4) %
same,"clinical improvement rate day 7, (%)",[2]; day 7,(6.3) %
same,"7-level scale on day 7, 2: Not hospitalized, but unable to return to normal activities, (%)",[2]; [5],(12.5) %
same,"7-level scale on day 7, 3: Hospitalized, no need for supplemental oxygen, (%)",[2]; [5],(25.0) %
same,"7-level scale on day 7, 4: Hospitalized, requiring supplemental oxygen, (%)",[2]; [5],(43.8) %
same,"7-level scale on day 7, 5: Hospitalized, requiring nasal high-flow oxygen therapy or non-invasive mechanical ventilation, (%)",[2]; [5],(16.7) %
same,"7-level scale on day 7, 6: Hospitalized, requiring extracorporeal membrane oxygenation, invasive mechanical ventilation, or both, (%)",[2]; [5],(2.0) %
same,"clinical improvement rate day 14, (%)",[2]; day 14,(39.6) %
same,"7-level scale on day 14, 2: Not hospitalized, but unable to return to normal activities, (%)",[2]; [6],(43.8) %
same,"7-level scale on day 14, 3: Hospitalized, no need for supplemental oxygen, (%)",[2]; [6],(31.2) %
same,"7-level scale on day 14, 4: Hospitalized, requiring supplemental oxygen, (%)",[2]; [6],(16.7) %
same,"7-level scale on day 14, 5: Hospitalized, requiring nasal high-flow oxygen therapy or non-invasive mechanical ventilation, (%)",[2]; [6],(6.3) %
same,"7-level scale on day 14, 6: Hospitalized, requiring extracorporeal membrane oxygenation, invasive mechanical ventilation, or both, (%)",[2]; [6],(2.0) %
same,"clinical improvement rate day 28, (%)",[2]; day 28,77.1%
same,"clinical improvement rate day 28, (%)","[2]; day 28, listed as IFN- α",(77.1) %
same,"7-level scale on day 28, 2: Not hospitalized, but unable to return to normal activities, (%)",[2]; [7],(91.6) %
same,"7-level scale on day 28, 3: Hospitalized, no need for supplemental oxygen, (%)",[2]; [7],(2.1) %
same,"7-level scale on day 28, 4: Hospitalized, requiring supplemental oxygen, (%)",[2]; [7],(4.2) %
same,"7-level scale on day 28, 6: Hospitalized, requiring extracorporeal membrane oxygenation, invasive mechanical ventilation, or both, (%)",[2]; [7],(2.1) %
same,"Deterioration rate, (%)","[2]; human, in vivo",(2.1) %
same,"Time for clinical improvement (days), median",[2]; added to baseline treatment,14.0 days
same,"Time for radiographic improvement (days), median",[2],10.0 days
same,"Time for Viral nucleic acid to turn negative (days), median",[2],10.0 days
same,serious adverse reaction (cases),[2],1
B1,CC50 Experiment 1,[3],651000 ng/mL
same,CC50 Experiment 2,[3],806000 ng/mL
same,CC50 Experiment 3,[3],680000 ng/mL
same,CC50 means,[3]; mean of 3 experiments,712000 ng/mL
same,"Radiographic Improvement Rate Day 7, (%)",[2]; Day 7,(43.5) %
same,"Rate for Viral nucleic acid to turn negative Day 7, (%)",[2]; Day 7,(50.0) %
same,"Radiographic Improvement Rate Day 7, differences (rate difference)","[2]; Day 7, rSIFN-co vs IFN-α",18.5
same,"Rate for Viral nucleic acid to turn negative Day 7, differences (rate difference)","[2]; Day 7, rSIFN-co vs IFN-α",18.7
same,"Radiographic Improvement Rate Day 14, (%)",[2]; Day 14,(84.8) %
same,"Rate for Viral nucleic acid to turn negative Day 14, (%)",[2]; Day 14,(76.1) %
same,"Radiographic Improvement Rate Day 14, differences (rate difference)","[2]; Day 14, rSIFN-co vs IFN-α",18.1
same,"Rate for Viral nucleic acid to turn negative Day 14, differences (rate difference)","[2]; Day 14, rSIFN-co vs IFN-α",11.5
same,"Radiographic Improvement Rate Day 28, (%)",[2]; Day 28,(91.3) %
same,"Rate for Viral nucleic acid to turn negative Day 28, (%)",[2]; Day 28,(97.8) %
same,"Radiographic Improvement Rate Day 28, differences (rate difference)","[2]; Day 28, rSIFN-co vs IFN-α",12.1
same,"Rate for Viral nucleic acid to turn negative Day 28, differences (rate difference)","[2]; Day 28, rSIFN-co vs IFN-α",12.4
same,"clinical improvement rate day 7, (%)",[2]; day 7,(10.9) %
same,"7-level scale on day 7, 2: Not hospitalized, but unable to return to normal activities, (%)",[2]; [5],(13.0) %
same,"7-level scale on day 7, 3: Hospitalized, no need for supplemental oxygen, (%)",[2]; [5],(19.6) %
same,"7-level scale on day 7, 4: Hospitalized, requiring supplemental oxygen, (%)",[2]; [5],(50.0) %
same,"7-level scale on day 7, 5: Hospitalized, requiring nasal high-flow oxygen therapy or non-invasive mechanical ventilation, (%)",[2]; [5],(17.4) %
same,"clinical improvement rate day 7, differences (rate difference)","[2]; day 7, rSIFN-co vs IFN-α",4.6
same,"clinical improvement rate day 14, (%)",[2]; day 14,(65.2) %
same,"7-level scale on day 14, 2: Not hospitalized, but unable to return to normal activities, (%)",[2]; [6],(58.7) %
same,"7-level scale on day 14, 3: Hospitalized, no need for supplemental oxygen, (%)",[2]; [6],(21.7) %
same,"7-level scale on day 14, 4: Hospitalized, requiring supplemental oxygen, (%)",[2]; [6],(17.4) %
same,"7-level scale on day 14, 5: Hospitalized, requiring nasal high-flow oxygen therapy or non-invasive mechanical ventilation, (%)",[2]; [6],(2.2) %
same,"clinical improvement rate day 14, differences (rate difference)","[2]; day 14, rSIFN-co vs IFN-α",25.6
same,"7-level scale on day 28, 2: Not hospitalized, but unable to return to normal activities, (%)",[2]; [7],(95.6) %
same,"7-level scale on day 28, 3: Hospitalized, no need for supplemental oxygen, (%)",[2]; [7],(2.2) %
same,"7-level scale on day 28, 4: Hospitalized, requiring supplemental oxygen, (%)",[2]; [7],(2.2) %
same,"clinical improvement rate day 28, differences (rate difference)","[2]; day 28, rSIFN-co vs IFN-α",16.4
same,"Time for clinical improvement (days), median",[2]; added to baseline treatment,11.5 days
same,"Time for radiographic improvement (days), median",[2],8.0 days
same,"Time for Viral nucleic acid to turn negative (days), median",[2],7.0 days
same,"Deterioration rate, differences (rate difference)",[2]; rSIFN-co vs IFN-α,−2.1
same,"Time for Viral nucleic acid to turn negative, differences (hazard ratio)","[2]; rSIFN-co vs IFN-α, Cox model",1.74
same,"Time for clinical improvement, differences (hazard ratio)","[2]; rSIFN-co vs IFN-α, Cox model",1.76
same,"Time for radiographic improvement, differences (hazard ratio)","[2]; rSIFN-co vs IFN-α, Cox model",2.19
same,serious adverse reaction (cases),[2],no serious adverse reaction
same,TI (CC50/EC50),[4]; MOI: 0.005 (50 PFU),5.35×10^7
same,EC50 Experiment 1,[4]; MOI: 0.005 (50 PFU),0.01531 ng/mL
same,EC50 Experiment 2,[4]; MOI: 0.005 (50 PFU),0.01401 ng/mL
same,EC50 Experiment 3,[4]; MOI: 0.005 (50 PFU),0.01058 ng/mL
same,EC50 means,[4]; MOI: 0.005 (50 PFU),0.0133 ng/mL
same,TI (CC50/EC50),"[4]; MOI: 0.005 (50 PFU), listed as Recombinant super-compound interferon (rSIFN-co)",5.35 × 10^7
same,TI (CC50/EC50),[4]; MOI: 0.05 (500 PFU),5.77×10^6
same,EC50 Experiment 1,[4]; MOI: 0.05 (500 PFU),0.1418 ng/mL
same,EC50 Experiment 2,[4]; MOI: 0.05 (500 PFU),0.1257 ng/mL
same,EC50 Experiment 3,[4]; MOI: 0.05 (500 PFU),0.1024 ng/mL
same,EC50 means,[4]; MOI: 0.05 (500 PFU),0.1233 ng/mL
same,TI (CC50/EC50),"[4]; MOI: 0.05 (500 PFU), listed as Recombinant super-compound interferon (rSIFN-co)",5.77 × 10^6
same,TI (CC50/EC50),[4]; MOI: 0.5 (5000 PFU),4.71×10^6
same,EC50 Experiment 1,[4]; MOI: 0.5 (5000 PFU),0.1886 ng/mL
same,EC50 Experiment 2,[4]; MOI: 0.5 (5000 PFU),0.1397 ng/mL
same,EC50 Experiment 3,[4]; MOI: 0.5 (5000 PFU),0.1253 ng/mL
same,EC50 means,[4]; MOI: 0.5 (5000 PFU),0.1512 ng/mL
same,TI (CC50/EC50),"[4]; MOI: 0.5 (5000 PFU), listed as Recombinant super-compound interferon (rSIFN-co)",4.71 × 10^6
same,inhibition of SARS-CoV-2 replication in Vero-E6 cell model,[4]; result in words,dose-dependent manner
